# Data: the supplement of paper PMC10567573
# B1: KRT34 (parent)
# chain: YQSYFKTIEELQQKILCAKAENAR
# Variants of: B1
# Test: protein stability index of a GFP-peptide fusion (GPS, HEK-293T) (PSI 1-6); higher = more stable
# Details: c terminus: a fixed tail appended
# 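Note: lentivirally expressed fusions sorted by FACS into six bins by GFP to DsRed ratio, PSI derived from sequencing read proportions per bin multiplied by bin number.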
row,Variant,protein stability index
1,YQSYFKTIETLQQKILCAKAENAR,1.27
2,YQSYFKTIENLQQKILCAKAENAR,2.19
3,YQSYFKTIEKLQQKILCAKAENAR,1.81
4,YQSYFKTIEGLQQKILCAKAENAR,1.7
5,YQSYFKTIEALQQKILCAKAENAR,1.95
6,YQSYFKTIEQLQQKILCAKAENAR,1.19
7,YQSYFKTIEHLQQKILCAKAENAR,1.69
8,YQSYFKTIEPLQQKILCAKAENAR,1.93
9,YQSYFKTIEILQQKILCAKAENAR,1.96
10,YQSYFKTIEVLQQKILCAKAENAR,2.04
11,YQSYFKTIEYLQQKILCAKAENAR,2.74
12,YQSYFKTIEWLQQKILCAKAENAR,1.72
13,YQSYFKTIESLQQKILCAKAENAR,1.83
14,YQSYFKTIEFLQQKILCAKAENAR,2.41
15,YQSYFKTIECLQQKILCAKAENAR,1.44
16,YQSYFKTIELLQQKILCAKAENAR,1.91
17,YQSYFKTIEDLQQKILCAKAENAR,1.61
18,YQSYFKTIEMLQQKILCAKAENAR,2
19,YQSYFKTIERLQQKILCAKAENAR,2.49
20,YQSYFKTIEELQQKILCAQAENAR,2.62
21,YQSYFKTIEELQQKILCATAENAR,1.39
22,YQSYFKTIEELQQKILCAIAENAR,2.39
23,YQSYFKTIEELQQKILCAEAENAR,1.99
24,YQSYFKTIEELQQKILCALAENAR,2.93

row,Variant,protein stability index
1,YQSYFKTIEELQQKILCAPAENAR,2.15
2,YQSYFKTIEELQQKILCAAAENAR,1.87
3,YQSYFKTIEELQQKILCAGAENAR,1.92
4,YQSYFKTIEELQQKILCAHAENAR,1.64
5,YQSYFKTIEELQQKILCAWAENAR,2.29
6,YQSYFKTIEELQQKILCADAENAR,2.48
7,YQSYFKTIEELQQKILCARAENAR,1.91
8,YQSYFKTIEELQQKILCASAENAR,1.9
9,YQSYFKTIEELQQKILCANAENAR,1.83
10,YQSYFKTIEELQQKILCAMAENAR,2.51
11,YQSYFKTIEELQQKILCAFAENAR,1.74
12,YQSYFKTIEELQQKILCACAENAR,1.78
13,YQSYFKTIEELQQKLLCAKAENAR,1.95
14,YQSYFKTIEELQQKYLCAKAENAR,2.25
15,YQSYFKTIEELQQKRLCAKAENAR,1.66
16,YQSYFKTIEELQQKCLCAKAENAR,1.16
17,YQSYFKTIEELQQKDLCAKAENAR,1.88
18,YQSYFKTIEELQQKPLCAKAENAR,1.71
19,YQSYFKTIEELQQKTLCAKAENAR,1.57
20,YQSYFKTIEELQQKFLCAKAENAR,1.6
21,YQSYFKTIEELQQKMLCAKAENAR,1.89
22,YQSYFKTIEELQQKWLCAKAENAR,2.2
23,YQSYFKTIEELQQKQLCAKAENAR,1.71
24,YQSYFKTIEELQQKHLCAKAENAR,1.87

row,Variant,protein stability index
1,YQSYFKTIEELQQKELCAKAENAR,2.03
2,YQSYFKTIEELQQKNLCAKAENAR,2.23
3,YQSYFKTIEELQQKGLCAKAENAR,1.45
4,YQSYFKTIEELQQKSLCAKAENAR,1.81
5,YQSYFKTIEELQQKKLCAKAENAR,2.71
6,YQSYFKTIEELQQKIDCAKAENAR,1.96
7,YQSYFKTIEELQQKIFCAKAENAR,1.6
8,YQSYFKTIEELQQKIWCAKAENAR,1.29
9,YQSYFKTIEELQQKIHCAKAENAR,2.12
10,YQSYFKTIEELQQKIECAKAENAR,2.63
11,YQSYFKTIEELQQKIKCAKAENAR,1.92
12,YQSYFKTIEELQQKIYCAKAENAR,2.28
13,YQSYFKTIEELQQKICCAKAENAR,1.84
14,YQSYFKTIEELQQKINCAKAENAR,1.75
15,YQSYFKTIEELQQKISCAKAENAR,1.97
16,YQSYFKTIEELQQKIICAKAENAR,1.67
17,YQSYFKTIEELQQKIMCAKAENAR,1.89
18,YQSYFKTIEELQQKIGCAKAENAR,2.02
19,YQSYFKTIEELQQKIACAKAENAR,1.8
20,YQSYFKTIEELQQKITCAKAENAR,1.72
21,YQSYFKTIEELQQKIRCAKAENAR,2.02
22,YQSYFKTIEELQQKIQCAKAENAR,1.66
23,YQSYFKTIEELQQKIPCAKAENAR,1.41
24,YQSYFKTIEELQQKILKAKAENAR,2.51

row,Variant,protein stability index
1,YQSYFKTIEELQQKILVAKAENAR,1.37
2,YQSYFKTIEELQQKILLAKAENAR,2.6
3,YQSYFKTIEELQQKILQAKAENAR,2.56
4,YQSYFKTIEELQQKILIAKAENAR,2.16
5,YQSYFKTIEELQQKILSAKAENAR,2.19
6,YQSYFKTIEELQQKILRAKAENAR,2.42
7,YQSYFKTIEELQQKILAAKAENAR,2.56
8,YQSYFKTIEELQQKILPAKAENAR,2.25
9,YQSYFKTIEELQQKILEAKAENAR,2.39
10,YQSYFKTIEELQQKILYAKAENAR,2.15
11,YQSYFKTIEELQQKILNAKAENAR,1.88
12,YQSYFKTIEELQQKILMAKAENAR,2.11
13,YQSYFKTIEELQQKILTAKAENAR,2.04
14,YQSYFKTIEELQQKILHAKAENAR,2.06
15,YQSYFKTIEELQQKILWAKAENAR,2.94
16,YQSYFKTIEELQQKILGAKAENAR,2.32
17,YQSYFKTIEELQQKILDAKAENAR,1.84
18,YQSYFKTIEELQQKILFAKAENAR,1.97
19,YQSYFKTIEELQQKILCVKAENAR,1.88
20,YQSYFKTIEELQQKILCTKAENAR,2.1
21,YQSYFKTIEELQQKILCQKAENAR,1.83
22,YQSYFKTIEELQQKILCEKAENAR,1.45
23,YQSYFKTIEELQQKILCDKAENAR,2.16
24,YQSYFKTIEELQQKILCLKAENAR,2.04

row,Variant,protein stability index
1,YQSYFKTIEELQQKILCNKAENAR,2.07
2,YQSYFKTIEELQQKILCCKAENAR,2.5
3,YQSYFKTIEELQQKILCRKAENAR,1.68
4,YQSYFKTIEELQQKILCKKAENAR,1.99
5,YQSYFKTIEELQQKILCHKAENAR,1.53
6,YQSYFKTIEELQQKILCGKAENAR,1.78
7,YQSYFKTIEELQQKILCFKAENAR,2.75
8,YQSYFKTIEELQQKILCYKAENAR,2.16
9,YQSYFKTIEELQQKILCPKAENAR,2.21
10,YQSYFKTIEELQQKILCWKAENAR,2.73
11,YQSYFKTIEELQQKILCIKAENAR,2.04
12,YQSYFKTIEELQYKILCAKAENAR,1.54
13,YQSYFKTIEELQDKILCAKAENAR,2.26
14,YQSYFKTIEELQKKILCAKAENAR,1.95
15,YQSYFKTIEELQGKILCAKAENAR,1.96
16,YQSYFKTIEELQSKILCAKAENAR,1.52
17,YQSYFKTIEELQVKILCAKAENAR,1.96
18,YQSYFKTIEELQTKILCAKAENAR,1.74
19,YQSYFKTIEELQEKILCAKAENAR,2.2
20,YQSYFKTIEELQHKILCAKAENAR,2.29
21,YQSYFKTIEELQRKILCAKAENAR,2.16
22,YQSYFKTIEELQAKILCAKAENAR,2.02
23,YQSYFKTIEELQCKILCAKAENAR,1.82
24,YQSYFKTIEELQPKILCAKAENAR,1.78

row,Variant,protein stability index
1,YQSYFKTIEELQLKILCAKAENAR,1.46
2,YQSYFKTIEELQNKILCAKAENAR,1.92
3,YQSYFKTIEELQFKILCAKAENAR,2.05
4,YQSYFKTIEELQMKILCAKAENAR,1.82
5,YQSYFKTIEELQIKILCAKAENAR,1.5
6,YQSYFKTIEECQQKILCAKAENAR,2.56
7,YQSYFKTIEEQQQKILCAKAENAR,1.98
8,YQSYFKTIEEDQQKILCAKAENAR,1.5
9,YQSYFKTIEEIQQKILCAKAENAR,2.13
10,YQSYFKTIEEEQQKILCAKAENAR,1.88
11,YQSYFKTIEEPQQKILCAKAENAR,2.3
12,YQSYFKTIEEVQQKILCAKAENAR,1.35
13,YQSYFKTIEERQQKILCAKAENAR,1.83
14,YQSYFKTIEEGQQKILCAKAENAR,2.58
15,YQSYFKTIEESQQKILCAKAENAR,1.2
16,YQSYFKTIEETQQKILCAKAENAR,1.62
17,YQSYFKTIEENQQKILCAKAENAR,2.41
18,YQSYFKTIEEMQQKILCAKAENAR,1.81
19,YQSYFKTIEEWQQKILCAKAENAR,1.93
20,YQSYFKTIEEYQQKILCAKAENAR,2.08
21,YQSYFKTIEEKQQKILCAKAENAR,2.34
22,YQSYFKTIEEHQQKILCAKAENAR,1.55
23,YQSYFKTIEEFQQKILCAKAENAR,1.4
24,YQSYFKTIEEAQQKILCAKAENAR,1.79

row,Variant,protein stability index
1,YQSYFKTIEELAQKILCAKAENAR,1.6
2,YQSYFKTIEELVQKILCAKAENAR,1.55
3,YQSYFKTIEELTQKILCAKAENAR,2.21
4,YQSYFKTIEELLQKILCAKAENAR,1.9
5,YQSYFKTIEELHQKILCAKAENAR,2.34
6,YQSYFKTIEELSQKILCAKAENAR,1.77
7,YQSYFKTIEELRQKILCAKAENAR,2.63
8,YQSYFKTIEELIQKILCAKAENAR,3.66
9,YQSYFKTIEELYQKILCAKAENAR,1.77
10,YQSYFKTIEELNQKILCAKAENAR,1.65
11,YQSYFKTIEELKQKILCAKAENAR,2
12,YQSYFKTIEELFQKILCAKAENAR,2.02
13,YQSYFKTIEELCQKILCAKAENAR,1.78
14,YQSYFKTIEELEQKILCAKAENAR,1.48
15,YQSYFKTIEELGQKILCAKAENAR,1.97
16,YQSYFKTIEELDQKILCAKAENAR,1.69
17,YQSYFKTIEELMQKILCAKAENAR,2.15
18,YQSYFKTIEELPQKILCAKAENAR,1.4
19,YQSYFKTIWELQQKILCAKAENAR,2.23
20,YQSYFKTISELQQKILCAKAENAR,1.99
21,YQSYFKTIYELQQKILCAKAENAR,1.64
22,YQSYFKTIRELQQKILCAKAENAR,1.75
23,YQSYFKTIVELQQKILCAKAENAR,3.47
24,YQSYFKTIQELQQKILCAKAENAR,1.9

row,Variant,protein stability index
1,YQSYFKTITELQQKILCAKAENAR,1.84
2,YQSYFKTIEELQQQILCAKAENAR,2.14
3,YQSYFKTIEELQQIILCAKAENAR,1.52
4,YQSYFKTIEELQQCILCAKAENAR,1.2
5,YQSYFKTIEELQQAILCAKAENAR,1.41
6,YQSYFKTIEELQQYILCAKAENAR,1.46
7,YQSYFKTIEELQQHILCAKAENAR,1.99
8,YQSYFKTIEELQQGILCAKAENAR,1.69
9,YQSYFKTIEELQQPILCAKAENAR,1.97
10,YQSYFKTIEELQQSILCAKAENAR,2.27
11,YQSYFKTIEELQQMILCAKAENAR,1.46
12,YQSYFKTIEELQQDILCAKAENAR,1.23
13,YQSYFKTIEELQQWILCAKAENAR,3.3
14,YQSYFKTIEELQQRILCAKAENAR,1.77
15,YQSYFKTIEELQQFILCAKAENAR,2
16,YQSYFKTIEELQQEILCAKAENAR,2.61
17,YQSYFKTIEELQQLILCAKAENAR,2.62
18,YQSYFKTIEELQQVILCAKAENAR,1.98
19,YQSYFKTIEELQQNILCAKAENAR,1.53
20,YQSYFKTIEELQQTILCAKAENAR,1.56
